These results are taken from PMC10696418.

Read-outs that look alike come from different tables or passages of the source.

Holding throughout (experiment): SPR
Experiment [1] concerns the target wild-type CRIg Ig V domain, His-tagged (human) (UniProt Q9Y279).
In experiment [2] the target is CRIg-Mut-1 (CRIg Ig V domain mutant K15R/K36R/K62R/K72R/K110R), His-tagged (human).
Experiment [3] deals with CRIg-Mut-2 (CRIg Ig V domain mutant K15R/K36R/K62Q/K72R/K110R), His-tagged (human).
In experiment [4] the target is wild-type CRIg Ig V domain, His-tagged (human) (UniProt Q9Y279). This is another data set of the same source.

Consider “iC3b (from UniProt P01024 23-667; P01024 1321-1663) (domain or fragment)”, for which, in experiment [1], the Ka-1 (two-state model, first step, association rate) is 35800 M⁻¹ s⁻¹; the Ka-2 (two-state model, second step, forward rate) was found to be 0.00463 s⁻¹; the Kd (in general, the concentration at which binding is half-saturated) was determined as 10.5 nM; the Kd-1 (two-state model, first step, dissociation rate) was 0.0168 s⁻¹. Further, the Kd-2 (two-state model, second step, reverse rate) in experiment [1] was 0.000105 s⁻¹. Further, in experiment [2], the Ka-1 (two-state model, first step, association rate) came out at 7100 M⁻¹ s⁻¹; the Ka-2 (two-state model, second step, forward rate) is 0.00589 s⁻¹; the Kd is 115 nM; the Kd-1 (two-state model, first step, dissociation rate) was 0.0209 s⁻¹. The Kd-2 (two-state model, second step, reverse rate) in experiment [2] stood at 0.000231 s⁻¹. Besides, in experiment [3], the Ka-1 (two-state model, first step, association rate) is 10600 M⁻¹ s⁻¹; the Ka-2 (two-state model, second step, forward rate) amounted to 0.00469 s⁻¹; the Kd was determined as 84.6 nM; the Kd-1 (two-state model, first step, dissociation rate) was found to be 0.0191 s⁻¹. This substance also had a Kd-2 (two-state model, second step, reverse rate) in experiment [3] of 0.000227 s⁻¹. Further, in experiment [4], the Ka-1 (two-state model, first step, association rate) worked out at 16000 M⁻¹ s⁻¹; the Ka-2 (two-state model, second step, forward rate) was 0.00376 s⁻¹; the Kd came out at 68 nM; the Kd-1 (two-state model, first step, dissociation rate) came out at 0.0207 s⁻¹. Also, the Kd-2 (two-state model, second step, reverse rate) in experiment [4] turned out to be 0.000206 s⁻¹.

“C3c (from UniProt P01024 23-667; P01024 749-954; P01024 1321-1663) (domain or fragment)”: in experiment [2], the Ka-1 (two-state model, first step, association rate) came out at 12000 M⁻¹ s⁻¹; the Ka-2 (two-state model, second step, forward rate) is 0.0052 s⁻¹; the Kd was 2780 nM; the Kd-1 (two-state model, first step, dissociation rate) was 0.0491 s⁻¹. Further, in experiment [2], the Kd-2 (two-state model, second step, reverse rate) stood at 0.00928 s⁻¹. Moreover, in experiment [3], the Ka-1 (two-state model, first step, association rate) turned out to be 14800 M⁻¹ s⁻¹; the Ka-2 (two-state model, second step, forward rate) turned out to be 0.00262 s⁻¹; the Kd is 1130 nM; the Kd-1 (two-state model, first step, dissociation rate) came out at 0.0271 s⁻¹. The Kd-2 (two-state model, second step, reverse rate) in experiment [3] stood at 0.00414 s⁻¹.

In experiment [1], “C3b (from UniProt P01024 749-1663; P01024 749-1663) (domain or fragment)” had a Ka-1 (two-state model, first step, association rate) of 25100 M⁻¹ s⁻¹; a Ka-2 (two-state model, second step, forward rate) of 0.00166 s⁻¹; a Kd of 47.2 nM; a Kd-1 (two-state model, first step, dissociation rate) of 0.00714 s⁻¹. This substance also came in with a Kd-2 (two-state model, second step, reverse rate) in experiment [1] of 0.00533 s⁻¹. Further, in experiment [2], the Kd was found to be 25.2 nM; the koff (commonly a measure of how fast the partners let go of each other) is 0.000441 s⁻¹; the kon (in general, a measure of how fast the partners come together) was 18200 M⁻¹ s⁻¹. Moreover, in experiment [3], the Kd is 16.2 nM, the koff was determined as 0.000203 s⁻¹ and the kon turned out to be 12600 M⁻¹ s⁻¹. In experiment [4], this substance displayed a Kd of 7.29 nM, a koff of 0.000125 s⁻¹ and a kon of 17100 M⁻¹ s⁻¹.
